Reference: PMC4828312 (Journal of neurochemistry, 2016)

B1: Human recombinant tubulin β-3 (TUBB3) (natural protein)
chain: MREIVHIQAGQCGNQIGAKFWEVISDEHGIDPSGNYVGDSDLQLERISVYYNEASSHKYVPRAILVDLEPGTMDSVRSGAFGHLFRPDNFIFGQSGAGNNWAKGHYTEGAELVDSVLDVVRKECENCDCLQGFQLTHSLGGGTGSGMGTLLISKVREEYPDRIMNTFSVVPSPKVSDTVVEPYNATLSIHQLVENTDETYCIDNEALYDICFRTLKLATPTYGDLNHLVSATMSGVTTSLRFPGQLNADLRKLAVNMVPFPRLHFFMPGFAPLTARGSQQYRALTVPELTQQMFDAKNMMAACDPRHGRYLTVATVFRGRMSMKEVDEQMLAIQSKNSSYFVEWIPNNVKVAVCDIPPRGLKMSSTFIGNSTAIQELFKRISEQFTAMFRRKAFLHWYTGEGMDEMEFTEAESNMNDLVSEYQQYQDATAEEEGEMYEDDEEESEAQGPK

What was measured:
[1] = biological target: B1; assay: SPR
[2] = biological target: HIV-1 envelope glycoprotein gp120, strain IIIB (HIV-1 (strain IIIB), UniProt P04578 33-511); assay: SPR

Binder	binding result [1]	Kd [2] [nM]
NDMVEQMHEDIISLWDQSLK [Helix-A peptide of gp120]	binds	
B1		7.5
